# Test results reported in article PMC11096365, “Cryo-EM structures of the human Elongator complex at work” (Nature Communications, 2024).
# T1: human ELP3 with C-terminal Twin-Strep-Tag (human, UniProt Q9H9T3 1-547)
# T1 construct: ELP3, human, codon-optimized open reading frame, UniProt Q9H9T3; with the tag 65 kDa as printed; Same material as the ELP3 chain of m4; carries an iron-sulfur cluster in all structures; also called ELP3 with Twin-Strep-Tag (TST); source: SuperSf9-3 insect cells, co-expressed with ELP1 and ELP2 (pBig1a), purified as ELP123 (StrepTrap, heparin, Superose 6); not shown: Twin-Strep-Tag, C-terminal, …
# T1 sequence (looked up): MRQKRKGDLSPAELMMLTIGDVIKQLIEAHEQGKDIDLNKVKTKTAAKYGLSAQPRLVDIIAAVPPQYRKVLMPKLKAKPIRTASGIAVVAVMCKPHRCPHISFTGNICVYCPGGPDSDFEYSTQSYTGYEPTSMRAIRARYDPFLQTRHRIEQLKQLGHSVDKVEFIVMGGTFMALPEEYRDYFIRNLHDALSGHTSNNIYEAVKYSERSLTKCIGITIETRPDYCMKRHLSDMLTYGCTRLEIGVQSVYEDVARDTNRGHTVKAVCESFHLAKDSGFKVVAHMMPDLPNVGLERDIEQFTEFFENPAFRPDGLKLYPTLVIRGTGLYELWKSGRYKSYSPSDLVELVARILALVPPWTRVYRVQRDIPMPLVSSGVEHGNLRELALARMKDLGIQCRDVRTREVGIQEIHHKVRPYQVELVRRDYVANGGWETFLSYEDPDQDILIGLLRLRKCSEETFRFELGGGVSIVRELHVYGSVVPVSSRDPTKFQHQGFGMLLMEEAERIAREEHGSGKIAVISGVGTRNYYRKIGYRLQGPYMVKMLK
# Experiments:
# TK40 = experiment: MST; conditions: complex; chains chain;chain;chain
# H3 = experiment: MST; conditions: complex; chains chain;chain;chain
# [1] = biological target: the molecule itself; experiment: cryo-EM structure; co-expressed, co-purified ELP123 (0.6 g/l) without or with tRNA (3.3 µM), acetyl-CoA/DCA/ECA (0.5 mM) and SAM (1 mM); 20 mM HEPES pH 7.5, 100 mM NaCl, 2 mM MgCl2, 2 mM DTT; single-particle analysis
# [2] = biological target: T1, human ELP3 with C-terminal …; experiment: co-purification with SDS-PAGE; ELP1, ELP2 and ELP3-Twin-Strep co-expressed in insect cells; StrepTrap, heparin and Superose 6 columns; SDS-PAGE of the purified subcomplex; conditions: partners not purified
# ELP1;ELP2;ELP3 wild type = ELP1;ELP2;ELP3 wild type (Homo sapiens;Homo sapiens;Homo sapiens, UniProt O95163;Q6IA86;Q9H9T3 1-1332;1-826;1-547, ||); experiment: MST; MST: 20 mM HEPES pH 7.5, 100 mM NaCl, 5 mM DTT, 0.05% Tween 20; incubated at 4 C 30 min, measured at 25 C; Cy5-tRNA 14 or 30 nM. Cryo-EM: 20 mM HEPES pH 7.5, 100 mM NaCl, 2 mM MgCl2, 2 mM DTT; conditions: protein: recombinant;recombinant;recombinant, tags: ;;C-terminal Twin-Strep-Tag, chain copies: 2;2;2, label: internal Cy5 (5% Cy5-CTP), tRNA fold
molecule,measurement,setting,value
"human ELP123 subcomplex (ELP1, ELP2, ELP3), O95163 1-1332; Q6IA86 1-826; Q9H9T3 1-547",Kd,TK40,> 10000 nM
same,Kd,H3,> 10000 nM
"human ELP1 (natural protein, UniProt O95163 1-1332, looked up, ELP1, human, codon-optimized open reading frame, UniProt O95163; predicted MW printed as 148 kDa; Same material as the ELP1 chain of m4; The ORF was first cloned into pFastBac1 HT A; source: SuperSf9-3 insect cells, co-expressed with ELP2 and ELP3 (pBig1a), purified as ELP123 (StrepTrap, heparin, Superose 6)) MRNLKLFRTLEFRDIQGPGNPQCFSLRTEQGTVLIGSEHGLIEVDPVSREVKNEVSLVAEGFLPEDGSGRIVGVQDLLDQESVCVATASGDVILCSLSTQQLECVGSVASGISVMSWSPDQELVLLATGQQTLIMMTKDFEPILEQQIHQDDFGESKFITVGWGRKETQFHGSEGRQAAFQMQMHESALPWDDHRPQVTWRGDGQFFAVSVVCPETGARKVRVWNREFALQSTSEPVAGLGPALAWKPSGSLIASTQDKPNQQDIVFFEKNGLLHGHFTLPFLKDEVKVNDLLWNADSSVLAVWLEDLQREESSIPKTCVQLWTVGNYHWYLKQSLSFSTCGKSKIVSLMWDPVTPYRLHVLCQGWHYLAYDWHWTTDRSVGDNSSDLSNVAVIDGNRVLVTVFRQTVVPPPMCTYQLLFPHPVNQVTFLAHPQKSNDLAVLDASNQISVYKCGDCPSADPTVKLGAVGGSGFKVCLRTPHLEKRYKIQFENNEDQDVNPLKLGLLTWIEEDVFLAVSHSEFSPRSVIHHLTAASSEMDEEHGQLNVSSSAAVDGVIISLCCNSKTKSVVLQLADGQIFKYLWESPSLAIKPWKNSGGFPVRFPYPCTQTELAMIGEEECVLGLTDRCRFFINDIEVASNITSFAVYDEFLLLTTHSHTCQCFCLRDASFKTLQAGLSSNHVSHGEVLRKVERGSRIVTVVPQDTKLVLQMPRGNLEVVHHRALVLAQIRKWLDKLMFKEAFECMRKLRINLNLIYDHNPKVFLGNVETFIKQIDSVNHINLFFTELKEEDVTKTMYPAPVTSSVYLSRDPDGNKIDLVCDAMRAVMESINPHKYCLSILTSHVKKTTPELEIVLQKVHELQGNAPSDPDAVSAEEALKYLLHLVDVNELYDHSLGTYDFDLVLMVAEKSQKDPKEYLPFLNTLKKMETNYQRFTIDKYLKRYEKAIGHLSKCGPEYFPECLNLIKDKNLYNEALKLYSPSSQQYQDISIAYGEHLMQEHMYEPAGLMFARCGAHEKALSAFLTCGNWKQALCVAAQLNFTKDQLVGLGRTLAGKLVEQRKHIDAAMVLEECAQDYEEAVLLLLEGAAWEEALRLVYKYNRLDIIETNVKPSILEAQKNYMAFLDSQTATFSRHKKRLLVVRELKEQAQQAGLDDEVPHGQESDLFSETSSVVSGSEMSGKYSHSNSRISARSSKNRRKAERKKHSLKEGSPLEDLALLEALSEVVQNTENLKDEVYHILKVLFLFEFDEQGRELQKAFEDTLQLMERSLPEIWTLTYQQNSATPVLGPNSTANSIMASYQQQKTSVPVLDAELFIPPKINRRTQWKLSLLD",binding result,[1],binds
same,stoichiometry N,[2],1
tRNASerUGA (structured_RNA) RNA: GCAGCGAUGGCCGAGUGGUUAAGGCGUUGGACUUGAAAUCCAAUGGGGUCUCCCCGCGCAGGUUCGAACCCUGCUCGCUGCGCCA,Kd,ELP1;ELP2;ELP3 wild type; long variable loop,138 ± 10.5 nM
"human ELP2 (natural protein, UniProt Q6IA86 1-826, looked up, ELP2, human, codon-optimized open reading frame; predicted MW printed as 93 kDa; Same material as the ELP2 chain of m4; The ORF was first cloned into pFastBac1 HT A; source: SuperSf9-3 insect cells, co-expressed with ELP1 and ELP3 (pBig1a), purified as ELP123 (StrepTrap, heparin, Superose 6)) MVAPVLETSHVFCCPNRVRGVLNWSSGPRGLLAFGTSCSVVLYDPLKRVVVTNLNGHTARVNCIQWICKQDGSPSTELVSGGSDNQVIHWEIEDNQLLKAVHLQGHEGPVYAVHAVYQRRTSDPALCTLIVSAAADSAVRLWSKKGPEVMCLQTLNFGNGFALALCLSFLPNTDVPILACGNDDCRIHIFAQQNDQFQKVLSLCGHEDWIRGVEWAAFGRDLFLASCSQDCLIRIWKLYIKSTSLETQDDDNIRLKENTFTIENESVKIAFAVTLETVLAGHENWVNAVHWQPVFYKDGVLQQPVRLLSASMDKTMILWAPDEESGVWLEQVRVGEVGGNTLGFYDCQFNEDGSMIIAHAFHGALHLWKQNTVNPREWTPEIVISGHFDGVQDLVWDPEGEFIITVGTDQTTRLFAPWKRKDQSQVTWHEIARPQIHGYDLKCLAMINRFQFVSGADEKVLRVFSAPRNFVENFCAITGQSLNHVLCNQDSDLPEGATVPALGLSNKAVFQGDIASQPSDEEELLTSTGFEYQQVAFQPSILTEPPTEDHLLQNTLWPEVQKLYGHGYEIFCVTCNSSKTLLASACKAAKKEHAAIILWNTTSWKQVQNLVFHSLTVTQMAFSPNEKFLLAVSRDRTWSLWKKQDTISPEFEPVFSLFAFTNKITSVHSRIIWSCDWSPDSKYFFTGSRDKKVVVWGECDSTDDCIEHNIGPCSSVLDVGGAVTAVSVCPVLHPSQRYVVAVGLECGKICLYTWKKTDQVPEINDWTHCVETSQSQSHTLAIRKLCWKNCSGKTEQKEAEGAEWLHFASCGEDHTVKIHRVNKCAL",stoichiometry N,[2],1
tRNAGln U33C34UG (structured_RNA) RNA: GGCCCCAUGGUGUAAUGGUUAGCACUCUGGACUCUGAAUCCAGCGAUCCGAGUUCAAAUCUCGGUGGGACCUCCA,binding result,ELP1;ELP2;ELP3 wild type,binds
tRNAGln C33U34UG (structured_RNA) RNA: GGCCCCAUGGUGUAAUGGUUAGCACUCUGGACCUUGAAUCCAGCGAUCCGAGUUCAAAUCUCGGUGGGACCUCCA,binding result,ELP1;ELP2;ELP3 wild type,binds
tRNAGln C33C34UG (structured_RNA) RNA: GGCCCCAUGGUGUAAUGGUUAGCACUCUGGACCCUGAAUCCAGCGAUCCGAGUUCAAAUCUCGGUGGGACCUCCA,binding result,ELP1;ELP2;ELP3 wild type,binds
tRNAGlnCUG (structured_RNA) RNA: GGUUCCAUGGUGUAAUGGUUAGCACUCUGGACUCUGAAUCCAGCGAUCCGAGUUCAAAUCUCGGUGGAACCUCCA,Kd,ELP1;ELP2;ELP3 wild type,118 ± 13.8 nM
